From patent US5618675A, “Methods and compositions for detecting lipopolysaccharides using CAP18 fragments” (Panorama Research, Inc., dated 1997)

What was measured:
[1] = system: RAW 264.7 cells; format: cell-based, murine; conditions: LPS-induced (2.5 ng/ml LPS in FIG. 6B)
Protocol: From the sequence of the CAP18 cDNA, it was apparent that the putative N-terminal peptide of CAP18 was in fact an internal fragment of the CAP18 protein. We therefore tried to reconfirm the original protein sequence. Neutrophil-derived heparin bound cationic proteins were prepared as described above and applied to a C18 reverse phase HPLC (FIG. 1). We sequenced the major peaks. Peaks at fractions 14.5 and 15.2 correspond to defensins MCP1 and MCP2 (Territo et al. (1989) J. Clin. Invest. 84:2017-2019), respectively. Fraction 25.8 is macrophage related protein 14 (MRP14) (Odink et al. (1987) Nature 330:80-82). The fraction at 20.3 minutes corresponds to a fragment of CAP18 of approximately 4-5 kD. […] The murine macrophage cell line RAW 264.7 (obtained from ATCC) and thioglycolate-elicited murine peritoneal exudate cells are used to produce RNI. Cells are cultured at 1×10^6 /ml. in RPMI-1640 +2.5% FCS in 24 well plates in the presence or absence of different concentrations of LPS or murine rlFNγ. After 24 hr. incubation at 37° C. the cell free supernatant is collected and tested for the presence of RNI. Accumulation of nitrite in the medium is measured by a colorimetric assay based on the Griess reaction (Green et al. (1982) Anal. Biochem. 126:11) using sodium nitrite as standards. Sample (50 μl) is mixed with 50 μl of Griess reagent (1% sulfanilamide, 0.1% naphthalene diamine dihydrochloride, 2.5% H3 PO4) and after 10 min. at room temperature absorbance is read at 570 nm.

[2] = system: Salmonella typhimurium; assay: Antibacterial CFU assay
[3] = system: Salmonella minnesota Re; assay: Antibacterial CFU assay; conditions: FIG. 6C
[4] = system: Salmonella minnesota ReLPS sensitized sheep erythrocytes; assay: LPS hemagglutination assay (MAC); format: binding
Protocol: For hemagglutination assays, erythrocytes were sensitized with LPS as follows. One ml of 1% erythrocyte suspension (human 0 type, C3H/HeN mouse or sheep) was mixed with 0.2 ml of LPS solution and incubated at 37° C. for 30 min, followed by washing with phosphate buffered saline (PBS), and then the concentration of suspension was adjusted to 1.0%. In the case of S-LPS, the solution was heated at 100° C. for 1 hour before sensitization of erythrocytes. […] Activity of CAP was expressed as a minimum agglutinating concentration (MAC) of CAP. According to the method of Kirikae et al. (1986) Microbiol. Immunol. 30:269-274, 50 μl of 2-fold serial dilution of Re-LPS was added to 50 μl of 1.0% rabbit erythrocyte suspension, and incubated at 37° C. for 3, hour. Minimum agglutinating concentration of Re-LPS was expressed as 1 HA unit.

[5] = system: thioglycolate-stimulated murine peritoneal macrophages; assay: LPS-induced tissue factor generation by macrophages; format: cell-based; conditions: peptide 1 μg/ml; 6 hr; FIG. 12
Protocol: […] Cells were cultured for 6 hours prior to assay of tissue factor by clotting assay.
[…] Production of tissue factor after 6 hr. was measured by clotting assay. […] In the absence of LPS no tissue factor is synthesized by these cells.

[6] = Anti-coagulant activity of human RNIP (preliminary studies); format: biochemical
[7] = system: galactosamine-sensitized mice; format: in vivo; conditions: CAP18 40 μg IP alone, no galactosamine, no Re-LPS
From the text: Galactosamine sensitizes mice to the lethal effects of LPS by a factor 1000 or more. CAP18 and LPS were mixed and injected IP into sensitized mice. CAP18 can neutralize the lethal effects of LPS in this model of endotoxemia (see Table 8).

[8] = system: human mononuclear cells; assay: LPS-induced tissue factor by human mononuclear cells; format: cell-based; conditions: for Δ Units (%): LPS alone 100
Protocol: Human mononuclear cells were separated from citrated peripheral blood by centrifugation over Sodium-metrizoate-Ficoll (lymphocyte Separation Medium, Japan Antibody Institute, Gumma). The resulting mixed mononuclear cell suspension was washed 3 times with RPMI 1640 media. Cell suspension (1×10^6 /ml) was stimulated with LPS for 16 to 18 hr.
Veronal buffered saline (VBS) was added to the cell pellet, lysed by 3 cycles of freeze/thaw and sonicated for 10 sec with a hand-held sonicator microbe (Handy Sonic, model UR-20P, Tomy Seiko LTD, Tokyo). Tissue factor activity was tested in modified unactivated partial thromboplastin time (7). One tenth ml of cell lysate (1×10^6 /ml) was preincubated with mouse plasma at 37° C. for 3 min. Then 0.1 ml of 25 mM-CaCl2 which contains phospholipid was added to the mixture and clotting time was measured using a fibrometer (Bio Quest Division, Becton Dickinson, Cokeysville, USA). A standard curve obtained from serial two-fold dilutions of rabbit brain thromboplastic (Simplastin, Ono Pharmaceutical Co.) was used to transpose tissue factor activity into arbitrary tissue factor units (1 μg/ml) suspension of rabbit brain was assigned a value of 1,000 units).
The mean tissue factor units+standard error was determined from three to four samples. Student's t test for unpair data was used to determine the statistically significant differences. A two-tailed P value of <0.05 was considered significant.
S. minnesota SmoothLPS (2 μg/ml) was preincubated with equal volume of
each LPSbinding protein (28HA) at 37° C. for 45 minutes, and the
mixture was added to the cells and cultured for 16 hours.

[9] = system: wild-type smooth Proteus mirabilis; conditions: cited from earlier work
[10] = system: rough mutant strain of Proteus mirabilis; conditions: cited from earlier work
[11] = system: encapsulated E. coli; conditions: cited from earlier work
[12] = first experiment, LPS 0.1 μg/ml
[13] = second experiment, LPS 0.1 μg/ml

50-2: synthetic rabbit RNIP-derived fragment, amino acids 147-171 of SEQ ID NO:4 (same range printed as 50-1) (IKEKLKKIGQKIQGLLPKLAPRTDY)
Inhibition of LPS-induced RNI-IC50 [1]: 0.3 µg/mL
anti-bacterial activity (CFU), words ([2]; FIG. 6D): not active
effect on CFU at high concentrations alone and in various combinations ([2]; FIG. 6F): No effect
anti-bacterial activity (CFU), words [3]: not active
Hemagglutination MAC (minimum agglutinating concentration) [4]: > 125 µg/mL
inhibition of LPS induced tissue factor [5]: fail to inhibit

human RNIP: human RNIP polypeptide comprising amino acids 134 to 170 of SEQ ID NO:2, Merrifield solid phase synthesis (LLGDFFRKSKEKIGKEFKRIVQRIKDFLRNLVPRTES)
anti-coagulant activity [6]: lacks significant anti-coagulant activity

B1: CAP18: cationic protein obtained from rabbit granulocytes, calculated molecular weight 16.6 kD, SEQ ID NO:4 (protein)
chain: METHKHGPSLAWWSLLLLLLGLLMPPAIAQDLTYREAVLRAVDAFNQQSSEANLYRLLSMDPQQLEDAKPYTPQPVSFTVKETECPRTTWKLPEQCDFKEDGLVKRCVGTVTRYQAWDSFDIRCNRAQESPEPTGLRKRLRKFRNKIKEKLKKIGQKIQGLLPKLAPRTDY
Lethality (%) groups of 10 mice [7]: 0%
Inhibition (%) [8, 12]: 30%
Tissue Factor, figure in parentheses (relative to unstimulated = 1.0) ([8]; first experiment, LPS 0.1 μg/ml, LPS alone 16.6): 9.9
Δ Units (%) [8, 12]: 70%
Δ Units ([8]; first experiment, LPS 0.1 μg/ml, LPS alone 17118): 12001
Tissue Factor ([8]; first experiment, LPS 0.1 μg/ml, LPS alone 18214 ± 4192, RNIP 2 HA units, CAP-18 1 HA unit): 13097 ± 1946 Units × 10^3 /3.6 × 10^4 cells
Inhibition (%) [8, 13]: 35%
Tissue Factor, figure in parentheses (relative to unstimulated = 1.0) ([8]; second experiment, LPS 0.1 μg/ml, LPS alone 14.7): 9.9
Δ Units (%) [8, 13]: 65%
Δ Units ([8]; second experiment, LPS 0.1 μg/ml, LPS alone 6726): 4366
Tissue Factor ([8]; second experiment, LPS 0.1 μg/ml, LPS alone 7218 ± 264, HA units HP-1 4, HP-2 2, RNIP 2, CAP-18 1): 4858 ± 1963 Units × 10^3 /3.6 × 10^4 cells
Tissue Factor, figure in parentheses (relative to unstimulated = 1.0) ([8]; second experiment, no LPS): 1.2
Δ Units ([8]; second experiment, no LPS): 235
Tissue Factor ([8]; second experiment, no LPS, unstimulated 492 ± 75): 583 ± 178 Units × 10^3 /3.6 × 10^4 cells

B2: BPI55: holoprotein of bactericidal permeability increasing protein (BPI) (protein, UniProt P17213 32-487, looked up)
Bactericidal …: VNPGVVVRISQKGLDYASQQGTAALQKELKRIKIPDYSDSFKIKHLGKGHYSFYSMDIREFQLPSSQISMVPNVGLKFSISNANIKISGKWKAQKRFLKMSGNFDLSIEGMSISADLKLGSNPTSGKPTITCSSCSSHINSVHVHISKSKVGWLIQLFHKKIESALRNKMNSQVCEKVTNSVSSELQPYFQTLPVMTKIDSVAGINYGLVAPPATTAETLDVQMKGEFYSENHHNPPPFAPPVMEFPAAHDRMVYLGLSDYFFNTAGLVYQEAGVLKMTLRDDMIPKESKFRLTTKFFGTFLPEVAKKFPNMKIQIHVSASTPPHLSVQPTGLTFYPAVDVQAFAVLPNSSLASLFLIGMHTTGSMEVSAESNRLVGELKLDRLLLELKHSNIGPFPVELLQDIMNYIVPILVLPRVNEKLQKGFPLPTPARVQLYNVVLQPHQNFLLFGADVVYK
growth inhibition [9]: only the rBPI23 inhibited growth
growth inhibition [10]: inhibited the growth
growth inhibitory activity, reduction over control [11]: about 100 fold
